Measurements: patent US20260158147A1

What was measured:
aBeta [1] = target: aBeta (UniProt P05067); assay: ELISA; commercial
aBeta [2] = target: aBeta (UniProt P05067); assay: ELISA

EC50 (aBeta [1])	EC50 (aBeta [2])	Substance
0.115 nM		Lecanemab (commercial)
	0.105 nM	Lecanemab (unshuttled)
